# Measured values taken from US20180296696A1 (SANFORD BURNHAM PREBYS MEDICAL DISCOVERY INSTITUTE, published 2018).
# No end group written: not given here.
# Experiments:
# [1] = biological target: Hyaluronan and proteoglycan link protein 4 (mouse) (UniProt Q80WM4); test: peptide-affinity chromatography of PBI mouse brain lysate, elution with free CAQK, LC-MS/MS
# Versican core protein [2] = biological target: T1, Versican core protein (mouse, UniProt Q62059 24-3357, limits assumed); test: as above
# T1 construct: Native chondroitin sulfate proteoglycan from brain lysate, identified by LC-MS/MS against the Mus musculus UniProt database; also called VCAN
# T1 sequence (Q62059 24-3357 limits assumed): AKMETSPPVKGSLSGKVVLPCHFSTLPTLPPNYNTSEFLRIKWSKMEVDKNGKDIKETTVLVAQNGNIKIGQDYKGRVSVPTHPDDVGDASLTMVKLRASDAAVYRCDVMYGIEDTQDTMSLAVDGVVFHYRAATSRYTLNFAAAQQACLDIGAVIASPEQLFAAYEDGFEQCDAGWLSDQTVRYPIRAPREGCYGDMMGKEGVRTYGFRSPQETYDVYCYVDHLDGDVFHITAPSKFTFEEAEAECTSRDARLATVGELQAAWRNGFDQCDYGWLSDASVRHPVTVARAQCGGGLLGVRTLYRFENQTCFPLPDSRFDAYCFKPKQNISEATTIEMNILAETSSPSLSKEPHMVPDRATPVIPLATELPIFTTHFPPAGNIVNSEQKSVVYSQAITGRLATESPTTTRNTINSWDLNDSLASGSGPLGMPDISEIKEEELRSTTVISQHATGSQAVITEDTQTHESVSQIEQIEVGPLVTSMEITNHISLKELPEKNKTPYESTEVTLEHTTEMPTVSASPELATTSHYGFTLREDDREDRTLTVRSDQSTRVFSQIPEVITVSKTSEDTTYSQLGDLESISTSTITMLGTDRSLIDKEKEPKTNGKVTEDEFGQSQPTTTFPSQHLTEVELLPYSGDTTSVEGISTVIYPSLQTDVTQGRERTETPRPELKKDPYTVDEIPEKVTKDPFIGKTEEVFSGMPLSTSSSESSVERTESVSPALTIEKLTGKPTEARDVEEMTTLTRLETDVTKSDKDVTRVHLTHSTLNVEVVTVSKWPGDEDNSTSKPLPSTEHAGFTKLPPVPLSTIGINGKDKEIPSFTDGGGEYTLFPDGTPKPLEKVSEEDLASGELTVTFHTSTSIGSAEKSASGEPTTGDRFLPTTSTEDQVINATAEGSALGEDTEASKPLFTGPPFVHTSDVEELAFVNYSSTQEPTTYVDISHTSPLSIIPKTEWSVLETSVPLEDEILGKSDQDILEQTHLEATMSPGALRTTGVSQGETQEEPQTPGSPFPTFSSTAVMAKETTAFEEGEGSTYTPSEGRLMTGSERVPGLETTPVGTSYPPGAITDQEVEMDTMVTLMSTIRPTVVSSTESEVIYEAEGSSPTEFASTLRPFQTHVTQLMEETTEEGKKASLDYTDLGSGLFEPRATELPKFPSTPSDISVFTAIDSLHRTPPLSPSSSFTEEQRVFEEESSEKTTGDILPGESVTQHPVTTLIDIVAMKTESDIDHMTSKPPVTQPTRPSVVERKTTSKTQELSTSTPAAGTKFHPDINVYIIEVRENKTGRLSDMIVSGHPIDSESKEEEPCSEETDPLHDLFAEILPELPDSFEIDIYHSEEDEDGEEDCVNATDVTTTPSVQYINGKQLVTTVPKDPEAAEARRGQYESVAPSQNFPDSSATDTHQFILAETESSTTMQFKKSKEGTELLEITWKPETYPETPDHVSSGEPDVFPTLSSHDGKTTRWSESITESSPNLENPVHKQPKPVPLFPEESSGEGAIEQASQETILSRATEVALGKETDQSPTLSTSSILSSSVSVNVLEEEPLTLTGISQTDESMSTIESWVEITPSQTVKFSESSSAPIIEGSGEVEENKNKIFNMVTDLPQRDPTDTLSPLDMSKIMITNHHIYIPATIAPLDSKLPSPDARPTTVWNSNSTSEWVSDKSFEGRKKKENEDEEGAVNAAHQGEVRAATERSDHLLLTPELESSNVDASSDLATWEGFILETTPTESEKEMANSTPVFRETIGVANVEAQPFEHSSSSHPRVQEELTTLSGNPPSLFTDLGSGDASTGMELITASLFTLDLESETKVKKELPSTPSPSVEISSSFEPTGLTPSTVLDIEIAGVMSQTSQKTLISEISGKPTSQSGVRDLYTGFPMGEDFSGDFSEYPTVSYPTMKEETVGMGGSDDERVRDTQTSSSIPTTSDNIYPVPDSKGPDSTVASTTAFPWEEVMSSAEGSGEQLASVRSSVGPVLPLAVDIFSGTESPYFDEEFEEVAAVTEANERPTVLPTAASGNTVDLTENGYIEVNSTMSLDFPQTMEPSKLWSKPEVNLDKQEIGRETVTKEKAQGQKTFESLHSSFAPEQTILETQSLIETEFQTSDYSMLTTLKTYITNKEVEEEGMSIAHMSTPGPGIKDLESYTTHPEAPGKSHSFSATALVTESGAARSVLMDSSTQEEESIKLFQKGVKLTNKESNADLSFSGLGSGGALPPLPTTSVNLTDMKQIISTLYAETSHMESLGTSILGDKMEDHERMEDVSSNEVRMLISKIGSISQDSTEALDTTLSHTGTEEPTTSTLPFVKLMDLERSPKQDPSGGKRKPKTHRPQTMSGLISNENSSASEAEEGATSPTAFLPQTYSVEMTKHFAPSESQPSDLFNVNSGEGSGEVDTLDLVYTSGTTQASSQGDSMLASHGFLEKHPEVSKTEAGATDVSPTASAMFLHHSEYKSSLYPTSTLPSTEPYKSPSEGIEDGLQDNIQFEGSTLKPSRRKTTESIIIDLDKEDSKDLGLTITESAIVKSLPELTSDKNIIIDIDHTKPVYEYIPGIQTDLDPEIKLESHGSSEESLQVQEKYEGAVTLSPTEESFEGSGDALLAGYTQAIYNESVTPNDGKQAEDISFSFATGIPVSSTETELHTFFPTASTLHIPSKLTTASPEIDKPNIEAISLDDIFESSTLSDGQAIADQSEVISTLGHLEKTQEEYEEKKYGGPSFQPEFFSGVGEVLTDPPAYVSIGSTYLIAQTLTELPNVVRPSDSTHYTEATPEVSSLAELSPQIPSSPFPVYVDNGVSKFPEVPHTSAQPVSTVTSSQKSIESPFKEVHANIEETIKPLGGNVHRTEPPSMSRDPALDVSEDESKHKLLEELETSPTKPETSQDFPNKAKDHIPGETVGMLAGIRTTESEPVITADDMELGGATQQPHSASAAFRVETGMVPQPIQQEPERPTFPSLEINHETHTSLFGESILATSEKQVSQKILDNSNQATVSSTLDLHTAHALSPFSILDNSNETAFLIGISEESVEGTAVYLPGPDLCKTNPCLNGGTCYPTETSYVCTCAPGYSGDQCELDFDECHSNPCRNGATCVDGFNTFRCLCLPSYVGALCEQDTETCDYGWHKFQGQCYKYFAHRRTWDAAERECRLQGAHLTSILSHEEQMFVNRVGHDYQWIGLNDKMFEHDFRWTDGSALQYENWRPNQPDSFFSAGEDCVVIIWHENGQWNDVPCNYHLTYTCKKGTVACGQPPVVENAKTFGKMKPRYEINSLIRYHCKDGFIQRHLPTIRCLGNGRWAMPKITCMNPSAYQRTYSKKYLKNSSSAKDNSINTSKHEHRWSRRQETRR
# Tenascin-R (mouse) [3] = biological target: Tenascin-R (mouse) (UniProt Q8BYI9); test: as above
# Chain of Tenascin-R (mouse) (Q8BYI9 32-1358 limits assumed): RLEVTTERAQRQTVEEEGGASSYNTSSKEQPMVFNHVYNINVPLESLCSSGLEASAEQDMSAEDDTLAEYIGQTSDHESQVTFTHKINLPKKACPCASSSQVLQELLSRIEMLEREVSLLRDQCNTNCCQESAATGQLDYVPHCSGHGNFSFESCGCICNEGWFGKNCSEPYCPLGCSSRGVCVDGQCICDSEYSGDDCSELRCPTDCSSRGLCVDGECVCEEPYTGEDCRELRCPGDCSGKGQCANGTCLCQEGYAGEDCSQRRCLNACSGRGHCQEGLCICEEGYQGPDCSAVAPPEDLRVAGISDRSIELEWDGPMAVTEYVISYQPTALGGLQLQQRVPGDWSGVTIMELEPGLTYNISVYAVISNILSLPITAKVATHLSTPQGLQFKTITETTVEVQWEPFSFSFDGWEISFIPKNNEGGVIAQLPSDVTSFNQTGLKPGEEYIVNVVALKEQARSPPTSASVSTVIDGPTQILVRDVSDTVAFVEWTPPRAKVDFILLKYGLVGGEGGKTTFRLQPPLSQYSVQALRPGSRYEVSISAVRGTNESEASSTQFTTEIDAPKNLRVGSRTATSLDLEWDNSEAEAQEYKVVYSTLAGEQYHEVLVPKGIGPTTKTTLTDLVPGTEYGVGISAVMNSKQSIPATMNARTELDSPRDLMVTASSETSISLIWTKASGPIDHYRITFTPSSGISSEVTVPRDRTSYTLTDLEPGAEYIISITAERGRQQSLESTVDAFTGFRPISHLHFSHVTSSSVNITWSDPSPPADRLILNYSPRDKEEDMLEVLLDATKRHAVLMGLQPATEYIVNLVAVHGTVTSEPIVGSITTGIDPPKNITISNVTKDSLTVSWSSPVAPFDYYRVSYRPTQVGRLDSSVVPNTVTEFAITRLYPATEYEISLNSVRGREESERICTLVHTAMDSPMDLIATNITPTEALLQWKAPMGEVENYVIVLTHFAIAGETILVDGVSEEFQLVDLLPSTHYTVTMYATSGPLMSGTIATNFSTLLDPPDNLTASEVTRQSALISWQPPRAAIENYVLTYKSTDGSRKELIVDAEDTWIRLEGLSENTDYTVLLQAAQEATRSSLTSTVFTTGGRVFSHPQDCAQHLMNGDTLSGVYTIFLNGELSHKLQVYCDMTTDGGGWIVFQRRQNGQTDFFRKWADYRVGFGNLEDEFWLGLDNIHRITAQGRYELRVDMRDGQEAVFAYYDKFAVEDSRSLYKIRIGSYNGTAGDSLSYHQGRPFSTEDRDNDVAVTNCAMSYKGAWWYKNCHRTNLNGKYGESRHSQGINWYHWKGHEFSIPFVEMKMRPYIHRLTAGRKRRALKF
# Tenascin-R (mouse) [4] = biological target: Tenascin-R (mouse) (UniProt Q8BYI9); test: peptide-affinity chromatography of PBI mouse brain lysate, LC-MS/MS
# Versican core protein [5] = biological target: T1, Versican core protein; test: peptide-affinity chromatography of PBI mouse brain lysate, LC-MS/MS (empty column denotes protein was not detected)
# Description: (§1) Affinity Chromatography and Proteomics. For identifying CAQK binding proteins, mouse brains with brain injury were collected 6 hrs after injury. Using liquid nitrogen, the brains were crushed and ground into powder using a mortar and pestle. Next, brain tissue was lysed in PBS containing 200 mM n-octyl-beta-D-glucopyranoside and protease inhibitor cocktail (Roche) as described (Teesalu et al., PNAS 16157-16162 (2009)). The cleared lysate was loaded on to CAQK or control peptide (CGGK) coated Sulfolink-agarose beads (Pierce, Waltham, Mass.) and incubated at 4° C. for 3-4 hrs. The column was washed with wash buffer (75 mM octyl-beta-D-glucopyranoside and protease inhibitor cocktail in PBS) followed by washing with 0.5 mM control peptide in wash buffer to remove nonspecifically bound proteins. The bound proteins were eluted with 2 mM free CAQK peptide. The eluted factions were pooled, their protein concentration determined by using bicinchoninic acid (BCA) protein assay (Thermo Fischer) and the samples were digested using the Filter-aided Sample Preparation (FASP) method (Wisniewski et al., Nat Methods 6:359-362 (2009)). […] All mass spectra were analyzed with MaxQuant software version 1.5.0.25. […] Empty column denotes protein was not detected.
# [6] = biological target: T2, Hyaluronan and proteoglycan link protein 4 (mouse, UniProt Q80WM4 31-400); test: as above
# T2 construct: Native protein from brain lysate, identified by LC-MS/MS; also called Hapln4; HAPLN4
# T2 sequence (Q80WM4 31-400 limits assumed): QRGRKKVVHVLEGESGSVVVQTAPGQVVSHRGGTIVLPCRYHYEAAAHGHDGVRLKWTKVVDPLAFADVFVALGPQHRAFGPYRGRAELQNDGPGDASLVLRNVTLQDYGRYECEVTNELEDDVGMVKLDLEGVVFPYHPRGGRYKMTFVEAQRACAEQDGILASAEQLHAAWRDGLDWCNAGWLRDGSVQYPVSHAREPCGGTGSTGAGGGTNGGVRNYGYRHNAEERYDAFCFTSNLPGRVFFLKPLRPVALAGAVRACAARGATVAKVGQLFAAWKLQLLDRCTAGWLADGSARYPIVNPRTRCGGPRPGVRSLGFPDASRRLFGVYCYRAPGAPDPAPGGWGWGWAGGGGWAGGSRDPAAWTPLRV
# Description: as §1
# Chain of Hyaluronan and proteoglycan link protein 4 (mouse) (Q80WM4 31-400 limits assumed): as above
molecule,measurement,setting,value
CAQK peptide,Log2 LFQ intensity (log2 LFQ intensity),[1],19.8
same,Log2 LFQ intensity (log2 LFQ intensity),Versican core protein [2],26
same,Log2 LFQ intensity (log2 LFQ intensity),Tenascin-R (mouse) [3],26.7
control peptide (CGGK),Log2 LFQ intensity (log2 LFQ intensity),Tenascin-R (mouse) [4],24.1
"CGGK (not fully specified (N-terminus, C-terminus), also called CGGK column) [control peptide (CGGK)]",binding result,Versican core protein [5],no binding
same,binding result,[6],no binding
